Test results from patent US20240409960A1, “METHOD FOR CONTROLLING PROTEIN FUNCTION” (The University of Tokyo, priority 2021, published 2024).

System: rox sites (Floxed (rox)-STOP Fluc reporter) in HEK293 cells
Assay: luciferase assay of Dre-rox DNA recombination in HEK293 cells
Format: cell-based, human
Settings: 5 ng plasmid, TMP 10 nM or 500 nM or DMSO, 24 or 48 hours
Description: For constructing the luciferase reporters detecting for the activities of Flp-FRT recombinase, VCre-Vlox recombinase and Dre-rox recombinase, the FRT site ([…]: SEQ ID No: 37), the Vlox site ([…]: SEQ ID No: 38), the rox site ([…]: SEQ ID No: 39), were inserted into HindIII and KpnI sites and ClaI and EcoRI sites in the pcDNA3.1 (+) vector of the luciferase reporter (of loxP-stop-loxP-Fluc).
For luciferase assay, HEK 293 cells were plated at 25,000 cells per well on a 96-well flat white microplate (Thermo Fisher Scientific), and were then cultured for 24 hours at 37° C. in 5% CO2. The cells were transfected with cDNAs encoding destabilized Cre along with the luciferase reporter (loxP-stop-loxP Fluc), using X-tremeGENE9 reagent (Merck Millipore) at 37° C. The total amount of DNA was 50 ng per well. Twenty-four hours after the transfection, TMP or DMSO was added into the cells, and the cells were further cultured for 24 hours or 48 hours. Just before the luciferase assay, the medium was replaced with Hanks' balanced salt solution (HBSS) (Thermo Fisher Scientific) containing 0.2 mM D-luciferin potassium salt. Bioluminescence measurement was performed for 1 second per well at room temperature using a Centro XS^3 LB 960 plate-reading luminometer (Berthold Technologies).

B1: SPEED-Dre: split Dre (a.a. 2-150 and 151-342), single DD on the N-terminal and C-terminal sides; SEQ ID No: 24 (protein)
chain: MVSKYPYDVPDYARSGGSGGMISLIAALAVDYVIGMENAMPWNLPADLAWFKRNTLNKPVIMGRHTWESIGRPLPGRKNIILSSQPSTDDRVTWVKSVDEAIAACGDVPEIMVIGGGRVIEQFLPKAQKLYLTHIDAEVEGDTHFPDYEPDDWESVFSEFHDADAQNSHSYCFEILERRGGSGGSGGKLVPKKKRKVGGSELIISGSSGGFLRNIGKEYQEAAENFMRFMNDQGAYAPNTLRDLRLVFHSWARWCHARQLAWFPISPEMAREYFLQLHDADLASTTIDKHYAMLNMLLSHCGLPPLSDDKSVSLAMRRIRREAATEKGERTGQAIPLRWDDLKLLDVLLGSGSGATNFSLLKQAGDVEENPGPLESRSERLVDLRNRAFLFVAYNTLMRMSEISRIRVGDLDQTGDTVTLHISHTKTITTAAGLDKVLSRRTTAVLNDWLDVSGLREHPDAVLFPPIHRSNKARITTTPLTAPAMEKIFSDAWVLLNKRDATPNKGRYRTWTGHSARVGAAIDMAEKQVSMVEIMQEGTWKKPETLMRYLRRGGVSVGANSRLMDSGGSGGSGGMISLIAALAVDYVIGMENAMPWNLPADLAWFKRNTLNKPVIMGRHTWESIGRPLPGRKNIILSSQPSTDDRVTWVKSVDEAIAACGDVPEIMVIGGGRVIEQFLPKAQKLYLTHIDAEVEGDTHFPDYEPDDWESVFSEFHDADAQNSHSYCFEILERR
modifications: MISC_FEATURE - HAtag; DOMAIN 21..179 Degradation Domain; SIGNAL 190..197 Nuclear Localization Signal; MISC_FEATURE - N-terminal side of Dre; MISC_FEATURE - P2A; MISC_FEATURE - C-terminal side of Dre; DOMAIN 575..733 Degradation Domain; Bacteriophage D6
**Q.** B1 was tested. Which “background and TMP-dependent DNA recombination activity” value did it give?
**A.** Its value is “results similar to those of SPEED-Cre”.
